Results taken from patent publication US20230183713A1, “SITE-SPECIFIC RECOMBINASES FOR EFFICIENT AND SPECIFIC GENOME EDITING” (TECHNISCHE UNIVERSITÄt DRESDEN, published 2023).
Changes are numbered by the printed parent chain. Numbers in names are those of the source.

Columns and labels:
[1] = target: T1, Cre recombinase monomer with W315I mutation
T1 chain: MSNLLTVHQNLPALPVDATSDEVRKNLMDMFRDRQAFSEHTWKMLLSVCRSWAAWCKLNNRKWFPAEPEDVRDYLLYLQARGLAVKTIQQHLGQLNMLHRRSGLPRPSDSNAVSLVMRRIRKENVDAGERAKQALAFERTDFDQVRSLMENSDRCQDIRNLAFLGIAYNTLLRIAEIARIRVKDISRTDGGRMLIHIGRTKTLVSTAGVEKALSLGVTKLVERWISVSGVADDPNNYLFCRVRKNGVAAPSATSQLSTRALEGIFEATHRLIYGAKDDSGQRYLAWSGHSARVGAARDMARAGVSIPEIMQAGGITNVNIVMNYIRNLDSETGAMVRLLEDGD

[2] = target: T2, Cre recombinase monomer with W315M mutation
T2 chain: T1 chain with I315M

[3] = target: T3, Cre recombinase monomer with W315Q mutation
T3 chain: T1 chain with I315Q

[4] = target: T4, Cre recombinase monomer with W315S mutation
T4 chain: T1 chain with I315S

[5] = target: T5, Cre recombinase monomer with W315V mutation
T5 chain: T1 chain with I315V

[6] = target: T6, Cre recombinase monomer with Y324K mutation
T6 chain: T1 chain with I315W, Y324K

[7] = target: T7, Cre recombinase monomer with Y324M mutation
T7 chain: T1 chain with I315W, Y324M

[8] = target: T8, Cre recombinase monomer with Y324W mutation
T8 chain: T1 chain with I315W, Y324W

B1: Cre recombinase monomer with Q311R mutation (protein)
chain: T1 chain with Q311R, I315W
Q: B1 was tested. Which “Median dimer activity (recombination on loxP)” value (“Median dimer activity” for short) [1] did it give?
A: 92%

Q: And the “Median dimer activity” value [2]?
A: 95%

Q: What about the “Median dimer activity” value [3] of the same protein?
A: 49%

Q: And the “Median dimer activity” value [4]?
A: 37%

Q: And the “Median dimer activity” value [5]?
A: 91%

Q: What about the “Median dimer activity” value [6] of the same protein?
A: 85%

Q: And the “Median dimer activity” value [7]?
A: 96%

Q: What about the “Median dimer activity” value [8] of the same protein?
A: 95%
